Here are results for one molecule from patent US20020142982A1 (published 2002).

The test has as its target T1, beta-catenin (endogenous, HUVEC) (human (HUVEC), UniProt P35222 2-781).
T1 construct: also called β-catenin
T1 sequence (looked up): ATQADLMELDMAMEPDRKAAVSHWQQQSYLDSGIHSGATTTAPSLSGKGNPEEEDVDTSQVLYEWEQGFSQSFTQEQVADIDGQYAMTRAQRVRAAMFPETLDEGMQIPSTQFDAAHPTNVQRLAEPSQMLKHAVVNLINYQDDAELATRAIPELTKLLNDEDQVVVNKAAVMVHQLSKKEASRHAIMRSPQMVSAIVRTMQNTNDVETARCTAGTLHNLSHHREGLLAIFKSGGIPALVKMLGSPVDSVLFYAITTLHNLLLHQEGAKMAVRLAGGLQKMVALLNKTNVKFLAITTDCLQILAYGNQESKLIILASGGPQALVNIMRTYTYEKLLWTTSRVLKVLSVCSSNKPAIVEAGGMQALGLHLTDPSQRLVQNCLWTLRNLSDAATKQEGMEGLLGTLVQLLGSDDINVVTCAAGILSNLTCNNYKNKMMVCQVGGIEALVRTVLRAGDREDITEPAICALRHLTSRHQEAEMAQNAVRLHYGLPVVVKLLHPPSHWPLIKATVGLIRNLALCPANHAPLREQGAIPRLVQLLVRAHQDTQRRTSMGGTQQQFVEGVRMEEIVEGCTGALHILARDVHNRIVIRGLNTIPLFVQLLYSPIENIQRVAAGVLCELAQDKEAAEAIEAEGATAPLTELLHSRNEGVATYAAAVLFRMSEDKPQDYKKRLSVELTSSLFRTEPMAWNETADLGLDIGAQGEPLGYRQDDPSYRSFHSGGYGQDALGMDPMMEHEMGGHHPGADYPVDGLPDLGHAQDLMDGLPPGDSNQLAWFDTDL
The test can be described thus: co-immunoprecipitation of 35S-labelled, DSP cross-linked detergent-insoluble HUVEC extracts. The protocol:
HUVEC were labeled to steady state with ^35Smethionine (250 μCi/mL, NEN DuPont) for 24 hours. After stimulation with 500 nM SPP for 1 hour, cells were fractionated with 0.5% TX-100. After centrifugation (15,000 g, 15 minutes), the protein complexes in detergent-insoluble fractions were cross-linked with 0.5 mM Dithiobis[succinimidyl propionate] (DSP; Pierce Chemical Co., Rockford, Ill.) (Hinck, L., J. Cell Biol. 125: 1327-1340 (1994)), and extracted with 1% TX-100-1% SDS as described above. Cell extracts were then immunoprecipitated with antibodies to VE cadherin, β-catenin, γ-catenin, or p120 Src (p120^cas, Transduction Laboratories). The immunoprecipitated complexes were then reduced by incubating in sample buffer containing 2% β-mercaptoethanol at 95° C. for 10 minutes, 10 μL dithiothreitol (1 M) was added to each gel lanes before protein separation by SDS-PAGE.

B1: gamma-catenin (endogenous, HUVEC) (other, human (HUVEC), UniProt P14923 1-745, looked up)
chain: MEVMNLMEQPIKVTEWQQTYTYDSGIHSGANTCVPSVSSKGIMEEDEACGRQYTLKKTTTYTQGVPPSQGDLEYQMSTTARAKRVREAMCPGVSGEDSSLLLATQVEGQATNLQRLAEPSQLLKSAIVHLINYQDDAELATRALPELTKLLNDEDPVVVTKAAMIVNQLSKKEASRRALMGSPQLVAAVVRTMQNTSDLDTARCTTSILHNLSHHREGLLAIFKSGGIPALVRMLSSPVESVLFYAITTLHNLLLYQEGAKMAVRLADGLQKMVPLLNKNNPKFLAITTDCLQLLAYGNQESKLIILANGGPQALVQIMRNYSYEKLLWTTSRVLKVLSVCPSNKPAIVEAGGMQALGKHLTSNSPRLVQNCLWTLRNLSDVATKQEGLESVLKILVNQLSVDDVNVLTCATGTLSNLTCNNSKNKTLVTQNSGVEALIHAILRAGDKDDITEPAVCALRHLTSRHPEAEMAQNSVRLNYGIPAIVKLLNQPNQWPLVKATIGLIRNLALCPANHAPLQEAAVIPRLVQLLVKAHQDAQRHVAAGTQQPYTDGVRMEEIVEGCTGALHILARDPMNRMEIFRLNTIPLFVQLLYSSVENIQRVAAGVLCELAQDKEAADAIDAEGASAPLMELLHSRNEGTATYAAAVLFRISEDKNPDYRKRVSVELTNSLFKHDPAAWEAAQSMIPINEPYGDDMDATYRPMYSSDVPLDPLEMHMDMDGDYPIDTYSDGLRPPYPTADHMLA
notes: also called γ-catenin
B1: the binding result was “no binding”.
